Measured values: patent publication WO2017153426A1 (dated 2017)

Target: native TSLP (supernatant from stimulated human lung fibroblasts) (human, UniProt Q969D9 29-159, limits assumed)
Experiment: cell-based or functional assay

B1: DOM30h-440-81/86 (other)
chain: DIQMTQSPSSLSASVGDRVTITCRASRPIRNWLDWYQQKPGKAPKLLIWGASHLQSGVPSRFSGSGSGTDFTLTISSLQPEDFATYYCVQIGEDPVTFGQGTKVEIK
In the case of B1, the “Geometric Mean IC50, inhibition of TSLP-induced pSTAT5 in SW756 cells” value is reported as 0.86 nM.
